Data from the nanobody polyreactivity screen of Harvey et al. (2022).

Experiment: yeast display, Sf9 membrane polyspecificity reagent, FACS + sequencing; frameworks hold sequencing errors
Summary of the method: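 A synthetic nanobody library was expressed on Saccharomyces cerevisiae BJ5465 by galactose induction for 36–48 hours. The library was stained for 1 hour at 4 °C with 10% biotinylated, detergent-solubilized Sf9 membrane reagent and enriched with streptavidin microbeads before FACS. Low and high (top ~1%) gates were set on anti-HA fluorescence for expression and streptavidin fluorescence for reagent binding, and each polyreactivity label reflects the gate of origin.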

Row | Sequence | polyreactivity (PSR sort gate)
1 | QVQLVESGGGLVQAGGSLRLSCAASGTIFRVYAMGRYRQAPGTERELVAAISSSGGSTYYADSVKGRFTISRDNAKTTVYLQMNSLKPEDTAVYYCAAEYDGPYTWVDYYYHYGYWGQGTQVTVSS | low polyreactivity
2 | QVQLVESGGRLVQAGGSLRLSCSASGLTFTNYAMGSYRQAPGKERELVAAISNSGATTYYADSVKGRFTISRDNAKNTVYVQLKSLKPEDTAVYYCAATSYTATWRYYYWGQGTQVTVSS | high polyreactivity
3 | QVQLVESGGGLVQAGGSLSLSCAASGSIFTHNAMGWYRQAPGKERELVAAISSGGSTNYADSVKGRFTISRDNAKNTVYLQMNSLKPEDTAVYYCAAGTQWYSQVYIYYYGGQGTQVTVSS | low polyreactivity
4 | QVQLVESVGGLVQAGGSLRLSCAASGSTCQRYAIGWYRQAPGKERELVAAISDGGSTNYADSVKGRFTISRDNAKNTVYLQMNSLKPEDTAVSYCAAKYLSRYDYWGQGTQVTVSS | low polyreactivity
5 | QVQLVESGGGLDQAGGSLRLSCAASGNIFYTNAMGWYRQEPGKAREFVAAISGSGGRTYYADSVKGRFTMSRDNAKNTFYLQMNSLKPEDTEVYYCNAVRRDYYDRNYGYWGQGTQVSVSS | low polyreactivity
6 | QVQLVESGGGLVQAGGSLRISCAPSGSNINAYAIGWYRQSTGKERELVARITRGDGTTYYADSVKGRFTISRDNAMNTVYLQMNRLKPEDNAVYYCNRVEYYSVWGYDYWVQGTQVTVSS | low polyreactivity
7 | QVQLVESGGGLVQAGGSLRLSCDASGLTFRYYAMVWYRQAHGKERELDATITRAGRTNYADSVKGRFTISRDNAKNTVYFQMNRLNPEDTAVYYCNAKQSGKYPRVVGYDYWGQGTQVTVSS | high polyreactivity
8 | QVQLVESGGGLVQAGGSLRLSCAASGRTFYPYARGWYREAPGKERELVAAISSNGVLTYYADSVKGRFTISRDNAKKSVYLQMNSLKPEDTAVYYCAARKPYVYHLDSWGQGTQVTVSS | high polyreactivity
9 | QVQLVESGGGLVQAGGSLRLSCAASGYTFTGYAMGWYRQAPGKERELVAAISWNGGSTFYADSVKGRFTISRDNAKNTVYLQMNSLKPEDTAVYYCATPRKLAYSPKLDYWGQGTQVTVSS | low polyreactivity
10 | QVQLVESGGGLVQAGGSLRLSCAASGRTFWPYAMGWYRQAPGKERELVAAINWGGGSTYYADSVKGRFTISRDNAKNTVYLQMNSLKPEDTAVYYCAADVGRNKMDYWGQGTQVTVSS | low polyreactivity
11 | QVQLVESGGGLVQAGGSLRLSCAASGRTFRYNAMGWYRQAPGKERELVARITVIGDSTYYADSVKGRFTISRDNAKNTVYLQMNSLKPEDTAVYYCAAVSRRVSPYLSARDYWGQGTQVTVSS | high polyreactivity
12 | QVQLVESGGGLVQAGGSLRLSCAASGGTFRYNAMGWYRQAPGKERELVAAISRSGGSTHYADSVKGRFTISRDNAKNTVYLQMNSLKPEDTAVYYCAATVTFVPSRAGFYKYNYWGQGTQVTVSS | high polyreactivity
13 | QVHLVESGGGLVQAGGSLRLSCAASGSIFSWYAMGWYRQAPGKEWELVAAITWSGGSTYYADSVKGRFTISRDTAKNTVYLQMNSLKPEDTAVYYCAASYDIYGNYRRYDYWGQGTQVTVSS | high polyreactivity
14 | QVQLVESGGGLVQAGGSLRLSCAASGYTFGVNAMGWYRQAPGKERELVAAISRSGGRTYYADSVKGRFTISRDNAKNTVYLQMTSLKPEDTAVYYCAKDRSGSYYNFPEYDYWGQGTQVTVSS | high polyreactivity
15 | QVQLVESGGGLVQAGGSLRLSCAASGSTFRSNAMGWYRQAPGKERELVAVISTRGGRTYYADSVKGRFTISRDNAKNTVYLQMNSLKPEDTAVYYCNTQISGSPYPYYYWGQGTQVTVSS | high polyreactivity
16 | QVHLVESGGGLVQAGGSLRFSCAASGSTFDDYAMGWYRQAPGKERELVAAISRSDGSTSYADSVKGRFTISRDNAKNTVYLQMNSLKPEDTAVYYCAADPVFKDDLWPVRVRVDYWGQGTQVTVSS | low polyreactivity

Row | Sequence | polyreactivity (PSR sort gate)
17 | QVQLVESGGGLDQAGGSLRLSCAASGSTFNWYTMGWYRQAPGKERELVAAISLNGGRTYYADSVKGRFTISRDNAKNTVYFQMNSLKQEDTAVYYCAAQISFYFAQYNLARFRGYYWGQGTQVTVSS | high polyreactivity
18 | QVQLVESGGGLVQAGGSLRLICAASGRTFYRYAMGWYRQAPGKDRELVATISRSGGSTYYADSVKGRFTISRDNAKNTVYLQINSLKPEDTAVYYCAADIPSYYWWRAYDYWGQGTQVTVSS | low polyreactivity
19 | QVQLVESGGGLVQAGGSLRLSSAASGRTFVINAMGWYRQAPGKERELVAAITWGGGSTYYADSVKGRFTISRDNAKNTVYLQMNSLKQEDSAVYYCATSYSVQYGGSGYYWGQGTQVTVSS | low polyreactivity
20 | QVQLVESGGGLVQAGGSLRLSCAASGSTFVGNAMGWYRQAPGKERELVAGITSSGTSTYYADSVKGRFTMSRDNAKNSVYLQMNRLKPEDTAVYYCATDDADESYGFELFDYWGLGTQVTVSS | low polyreactivity
21 | QFQLVESGGGLVQAGGSLRLSCAASGFIFPLYTMGWYRQAPGKETELVAAIDGGGTTYADSVKGRFTISRDNAKNTVYLQMNSLKPEDTAVYYCAADWYYQYSIYRYGYWGQGTQVTVSS | low polyreactivity
22 | QVQLVESGEGLVQARGSLRLSCAASGYTFLGYAMGWYRQAPGKERELVAAINRSGSSTYYADSVKGRFTISRDNAKNTVYLQMNSLKPEDTAVYYCNARSGNRYGPRYDYWGQGTKVTVSS | high polyreactivity
23 | QVQLVESGGGLVQAGGRLRVSCATSGRTFGKYAMGWYRQAPGKERELVATISRSGGSTYYADSVKGRFTISRDNAKNTVYLQMNSLNPVDNAVYYCNAVTSRYIWPPGLDRYHYWGQGTQVTVSS | high polyreactivity
24 | QVQLVESGGGLVQAGGSLRLSCAASGFTFWYYTMGWYRQAPGKERELVAAITRSGGRTYYADSVKGRFTISRDNAKNTVYLQMNSLKPEDTAVYDCAAVGNLYYTSHWQYDYWGQGTQVTVSS | high polyreactivity
25 | QVQLVESGGGLVQAGGSLRLSCAASGITFAYYAMGWYRQAPGKERELVAAISSTGSSTYYADSVKGRFTISRDNAKNTVYLQMNSLKPEDTAVYYCNKLQQYTLSEYWGQGTQVTVSS | high polyreactivity
26 | QVQLVESGGGLVQAGGSLRLTCAASGFTFGTYAMGWYRQAPGKERELVAAITWSGGSTYYADSVKGRFTISRDNAKNTVYLQMNSLKPEDTAVYYCAAESADYNDGDYWGQGTQVTVSS | low polyreactivity
27 | QVQLVESGGGLVQAGGSLRLRCAASGRTLWLYTMGWYRQAPGKERELVARIRSGGSTYYADSVKGRFTISRDNAKNTVYLQMNSLKPEDTAVYYCAAYPYWIHYENYYWGQGTQVTVSS | high polyreactivity
28 | QVQLVESGGGLVQAGGSLRLSCAASGSISGYNAMGWYRQAPGKERELVAAISWAGGITRYADSVKGRFTISRDNAKNPVYLQMNSLKPEDTAVYYCAADQTYERHWVYYWGQGTQVTVSS | low polyreactivity
29 | QVQLVESGGGLVQAGGSLRLSCAASGRTFRYYAMGWYRPATGKERELVADISSTGRTYYADSVKGRFTISRDNAKNTVYLQMNSLKPEDTAVYYCNADYFFEFDYWGQGTQVTVSS | low polyreactivity
30 | QVQLQESGGGLVQAGGSLRPSCAASGSISDGVPMGWYRQAPGEERELVATTVLGATTNYADSVKGRFTISRGNAKYTVYLQMNSLKPEETAVYYCAAPLRYDKGFSYWGQGTQVTVSS | low polyreactivity
31 | QVQLVESGGGLVQAGRSLRLSCAASGRIFYGYAMGWYRQAPGRERELVAANTYIGGTYYADSVKGRFTISRDNAKNTVYLQMKSLKPEDTAVYYCATEPFYTYGYYTYPYWYDYWGQATQVTVSS | low polyreactivity
